Key:
sv2c_human SV2C [1] = biological target: T1, sv2c_human SV2C (UniProt Q496J9)
T1 sequence: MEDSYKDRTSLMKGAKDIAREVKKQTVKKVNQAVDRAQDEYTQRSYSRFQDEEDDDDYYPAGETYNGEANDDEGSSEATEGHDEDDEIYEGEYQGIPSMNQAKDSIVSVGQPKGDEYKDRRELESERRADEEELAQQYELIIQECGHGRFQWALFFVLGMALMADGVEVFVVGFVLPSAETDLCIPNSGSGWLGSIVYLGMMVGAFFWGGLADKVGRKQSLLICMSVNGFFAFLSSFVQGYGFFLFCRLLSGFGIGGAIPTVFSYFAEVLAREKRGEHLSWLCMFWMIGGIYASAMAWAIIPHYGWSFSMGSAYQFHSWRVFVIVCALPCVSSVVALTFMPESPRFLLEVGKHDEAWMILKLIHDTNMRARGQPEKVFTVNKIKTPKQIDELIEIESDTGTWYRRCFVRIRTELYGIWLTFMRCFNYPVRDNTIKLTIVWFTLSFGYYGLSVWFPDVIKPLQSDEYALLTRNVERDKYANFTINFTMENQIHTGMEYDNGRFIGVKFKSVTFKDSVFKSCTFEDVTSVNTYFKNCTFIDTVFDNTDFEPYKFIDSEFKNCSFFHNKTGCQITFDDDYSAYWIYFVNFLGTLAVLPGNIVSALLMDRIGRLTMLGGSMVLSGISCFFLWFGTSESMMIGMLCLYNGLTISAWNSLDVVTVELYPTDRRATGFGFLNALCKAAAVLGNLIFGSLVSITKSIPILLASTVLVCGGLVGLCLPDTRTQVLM

sv2c_human SV2C [2] = biological target: T1, sv2c_human SV2C; remark: listed apart in the source

Row | Substance | effect of a mutation on the interaction (sv2c_human SV2C [1]) | effect of a mutation on the interaction (sv2c_human SV2C [2])
1 | Botulinum neurotoxin type A (Clostridium botulinum) (from UniProt P0DPI0) R1156E | decreasing interaction strength | –
2 | Botulinum neurotoxin type A (Clostridium botulinum) (from UniProt P0DPI0) R1294A | decreasing interaction strength | –
3 | Botulinum neurotoxin type A (Clostridium botulinum) (from UniProt P0DPI0) T1145A;T1146A | disrupting interaction strength | decreasing interaction strength

— IntAct's records for PubMed 24240280
